Experimental data: article PMC2891831, “Insight into the Mechanisms of Adenovirus Capsid Disassembly from Studies of Defensin Neutralization” (PLoS Pathogens, 2010)
“Also recorded” adds a separate entry of the source.

Columns and labels:
HAdV-19c = test: Virus-defensin binding assay, HAdV-19c; parameters: species or system human adenovirus
Source text: Figure 2 HD5 binding to HAdV. A) HD5 binding to a representative defensin-sensitive serotype (HAdV-5) was quantified by an equilibrium-binding assay. Data are the mean of the number of HD5 molecules bound per virion at the indicated HD5 concentrations from at least three independent experiments ± SD. Binding curves were fitted using Prism software. B) Binding of HD5 to additional defensin-sensitive (HAdV-7p) and resistant (HAdV-19c, -25p, -51p) serotypes expressed as a percent of HD5 bound to HAdV-5. Data are the mean of two or three independent experiments ± SD.
We assessed HD5 binding to additional serotypes after incubation with 20 µM HD5 (Figure 2B). The sensitive serotype HAdV-7p bound 69.3±15.9% of the amount of HD5 bound to HAdV-5 in parallel samples; whereas, the corresponding values for the resistant serotypes HAdV-19c, -25p, and -51p were 32.5±7.5%, 3.3±5.8%, and 24.6±12.0%, respectively.
To measure HD5 binding to HAdV-5 and -51, HD5 was serially diluted in PBS and mixed with 5 µg purified virus. […] The other half of each sample was used to make a standard curve for quantification. […] Virus bands were quantified using ImageQuant NT software (GE Healthcare). […] The amount of HD5 in the centrifuged samples was then quantified against the standard curve using Prism software. […]

19cF [1] = test: Infection assay, 19cF virus chimera; format: cell-based, human adenovirus
Source text: The availability of sensitive (e.g., HAdV-5) and resistant (e.g., HAdV-19c) serotypes provided a means to test this HD5 neutralization model by generating virus chimeras. Initially, virus chimeras were constructed by replacing the sequences for fiber, penton base, and hexon in the HAdV-5 genome with the corresponding sequences from HAdV-19c. Consistent with previous studies, [38], the virus chimera containing the HAdV-19c hexon is not viable; however, constructs containing the HAdV-19c fiber (19cF) or penton base (19cPB) are capable of replicating. […] In contrast, the 19cPB virus has an intermediate phenotype.
Figure 6 Neutralization determinants are located in fiber and penton base. A) Schematic of chimeric viruses. […] B) Each of the chimeric viruses was incubated with 5 µM (grey) or 10 µM (black) HD5 and assessed for infectivity on A549 cells. […] The upper limit for quantification of this assay is 200%.
Prior to use in this assay, each virus stock was titrated on A549 cells. […] In parallel, wells were infected with two-fold serial dilutions of each virus to establish a standard curve for quantification with an upper limit of 200%. […] Total well fluorescence above background was quantified with ImageJ software. For each virus, samples were quantified by nonlinear regression against the standard curve using Prism software (GraphPad Software, Inc., La Jolla, CA).

19cF [2] = test: Virus-defensin binding assay, 19cF; parameters: species or system human adenovirus; conditions: studies equivalent to Figure 2B, data not shown
Protocol: (§1) We then combined the GYAR substitution with the PB substitution in a single construct (PB/GYAR).
(§2) To measure HD5 binding to HAdV-5 and -51, HD5 was serially diluted in PBS and mixed with 5 µg purified virus. After 1 h incubation on ice, one half of each sample was separated by ultracentrifugation [209,000×g (avg.) for 2 hrs at 4°C] on a discontinuous gradient consisting of 300 µl of 30% nycodenz and 200 µl of 80% nycodenz in 50 mM NaCl, 20 mM HEPES pH 7.4 using an SW55ti rotor with adaptors (Beckman Coulter, Inc.). The visible virus band was collected. The other half of each sample was used to make a standard curve for quantification. All samples were boiled in reducing loading buffer and separated using a 16% PAGEgel (Expedeon, Inc., San Diego, CA) or 10–20% Tris-Tricine gel (Bio-Rad, Hercules, CA). The gels were stained with Deep Purple (GE Healthcare) and imaged on a Typhoon Trio. Virus bands were quantified using ImageQuant NT software (GE Healthcare). The amount of HD5 in each sample was normalized to protein V and hexon. The amount of HD5 in the centrifuged samples was then quantified against the standard curve using Prism software. Affinity and stoichiometry were estimated from the average data of at least three independent experiments using Prism software.

PB/GYAR = test: Virus-defensin binding assay, PB/GYAR; parameters: species or system human adenovirus; conditions: studies equivalent to Figure 2B, data not shown
Protocol: as §1, §2

HAdV-5 capsid = conditions: previous observation; cited from earlier work
Source text: Therefore, we considered which of the multiple binding sites visualized by cryoEM might lead to enhanced virion stability. We reasoned that we might find a negatively charged region o ... || Based on our combined functional and structural studies, we propose a model for neutralization in which α-defensins bind to critical capsid determinants at the point of contact between fiber and penton base, thereby preventing fiber release. One implication of this model is that fiber dissociation is absolutely required for subsequent uncoating events. This model cannot distinguish between the dissociation of fiber and penton base from the capsid independently or together as a complex. In the first case, defensin may actively lock the fiber onto the penton base. Alternatively, HD5 may obstruct ...

B1: HD5: human alpha-defensin; synthetic, obtained from Peptides International; three disulfide bonds (PDB 1ZMP) (peptide, UniProt Q01523 20-94, looked up)
Defensin alpha 5: ESLQERADEATTQKQSGEDNQDLAISFAGNGLSALRTSGSQARATCYCRTGRCATRESLSGVCEISGRLYRLCCR
modifications: Defensin-5
- HD5 bound, percent of HD5 bound to HAdV-5 (HAdV-19c; 20 µM HD5, mean of two or three independent experiments ± SD): 32.5±7.5%
- level of HD5 binding (in words) (HAdV-19c; HAdV-19c): only a low level of binding
- sensitivity to HD5 neutralization (19cF [1]; 5 µM and 10 µM HD5, A549 cells, at least three independent experiments, upper limit 200%): completely resistant to neutralization
- defensin-resistance at higher HD5 concentration (19cF [1]; 20 µM HD5, data not shown): confirmed the defensin-resistance
- amount of HD5 bound compared to HAdV-5 (19cF [2]): did not detect a reduction in the amount of HD5 bound; also recorded: did not result in a noticeable reduction in overall HD5 binding
- amount of HD5 bound compared to HAdV-5 (PB/GYAR): did not detect a reduction in the amount of HD5 bound; also recorded: did not result in a noticeable reduction in overall HD5 binding
- effect on capsid proteins upon exposure to heat (HAdV-5 capsid): stabilizes the capsid and prevents dissociation of capsid proteins, including fiber, upon exposure to heat
